Data taken from patent publication US20260049144A1 (Johns Hopkins, published 2026).

Experiments:
[1] = target: T1, PD-L1 extracellular domain (ECD) (UniProt Q9NZQ7 19-238, limits assumed); test: yeast-displayed clone, soluble PD-L1 titration, flow cytometry
T1 construct: extracellular domain; Soluble PD-L1 used in the yeast-display titrations and in BLI; Tags or biotinylation are not described; also called Programmed death-ligand 1; CD274

[2] = target: T1, PD-L1 extracellular domain (ECD); test: BLI, equilibrium binding, soluble fragment on immobilized PD-L1
PD-L1 on cells [3] = target: PD-L1 on cells (UniProt Q9NZQ7); test: equilibrium binding to cells (method 'Cell'; cell line not stated)
PD-L1 on cells [4] = target: PD-L1 on cells (UniProt Q9NZQ7); test: cell-based or functional assay
[5] = target: T1, PD-L1 extracellular domain (ECD); test: BLI competition: B8 VNAR immobilized on the tip, 100 nM PD-L1, soluble B8 VNAR titrated as competitor

Sequence of PD-L1 on cells (Q9NZQ7 19-290 limits assumed): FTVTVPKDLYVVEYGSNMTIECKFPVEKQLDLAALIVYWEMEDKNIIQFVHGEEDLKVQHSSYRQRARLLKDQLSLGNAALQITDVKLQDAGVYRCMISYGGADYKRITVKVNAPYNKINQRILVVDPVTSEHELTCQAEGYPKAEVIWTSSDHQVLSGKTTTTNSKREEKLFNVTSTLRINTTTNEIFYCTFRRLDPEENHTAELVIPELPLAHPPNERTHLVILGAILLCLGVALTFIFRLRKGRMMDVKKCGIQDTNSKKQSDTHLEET
T1 sequence (Q9NZQ7 19-238 limits assumed): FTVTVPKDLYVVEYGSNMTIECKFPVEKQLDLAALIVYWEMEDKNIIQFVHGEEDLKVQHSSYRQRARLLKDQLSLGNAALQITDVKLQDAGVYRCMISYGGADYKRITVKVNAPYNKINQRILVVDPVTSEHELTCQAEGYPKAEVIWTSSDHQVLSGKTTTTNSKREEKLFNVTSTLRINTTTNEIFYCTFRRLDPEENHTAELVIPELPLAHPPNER

| Binder | Kd [1] [nM] | Kd [2] [nM] | further results |
| --- | --- | --- | --- |
| C7 VNAR (VNAR, Not the same as C7 scFv) VNAR: ARVDQTPQTITKETGESLTINCVVRDSACALVRTFWYRKKSGSTNEESISKGGRYVETVNSGSKSFSLRINDLTVEDSGTYRCKVFGWCRMRDVYGGGTVVTVN | 400 |  |  |
| A9 VNAR (VNAR, VNAR (shark variable new antigen receptor single domain) from nurse sharks immunised with the PD-L1 ECD; Measured on yeast and as a soluble fragment (BLI)) VNAR: ARVDQTPQTITKETGESLTINCVVRDTACALVRTFWYRKKSGSTNEESISKGGRYVETVNRGSKSFSLRINDLTVEDSGTYRCKVFGWCRMRDVYGGGTVVTVN | 225 | 127 |  |
| C4 VNAR (VNAR) VNAR: ARVDQTPLTITKETGESLTINCVLRDSNCALSSTYWYRKSSGSTNEEIISKGGRYVETVNSGSNSFSLRINDLTVEDSGTYRCKVFGWCRMRDVYGGGTVVTVN | > 1000 |  |  |
| TS1521 (VNAR, part only; not given: atezolizumab heavy and light chains, part only) heavy, part: ARVDQTPQTITKETGESLTINCVLRDASYALGSTCWYRKKSGSTNEESISIGGRYVETVNSGSKSFSLRINDLTVEDSGTYRCGVDSWCPPVCSWAYAGCGDGTAVTVNGGGGSGGGGSGGGGS light, part: GGGGSGGGGSARVDQTPQTITKETGESLTINCVVRDTACALVRTFWYRKKSGSTNEESISKGGRYVETVNRGSKSFSLRINDLTVEDSGTYRCKVFGWCRMRDVYGGGTVVTVN |  |  | Kd (PD-L1 on cells [3]): 0.204 nM; TCR activation (NFAT-induced luminescence), FC50, antibody continuously present (PD-L1 on cells [4]): 0.51 nM; TCR activation (NFAT-induced luminescence), potency, antibody removed before addition of effector cells (PD-L1 on cells [4]): 0.95 nM; reduction in TCR activation potency, continued presence versus removal of antibody (PD-L1 on cells [4]): 1.9 fold |
| B8 VNAR (VNAR, VNAR (shark single domain); Measured on yeast and as a soluble fragment (BLI); Not the same as B8 scFv) VNAR: ARVDQTPQTITKETGESLTINCVLRDASYALGSTCWYRKKSGSTNEESISIGGRYVETVNSGSKSFSLRINDLTVEDSGTYRCGVDSWCPPVCSWAYAGCGDGTAVTVN | 97.3 | 33.5 | IC50 (read off the curve) [5]: ~100 nM |
| B11 VNAR (VNAR) VNAR: ARVDQTPQTITKETGESLTINCVLRDSNCALSSTYWYRKKSGSTNEESISKGGRYVETVNSGSKSFSLRINDLTVEDSGTYRCRLFVSWLSDYDCATYYVSGGGTVVTVN | > 1000 |  |  |
